According to patent US20210113690A1 (BERLIN CHEMIE, published 2021):

Columns and labels:
Experiment in all cases: peptide microarray, 8mer on the chip, 1 µg/mL LY75_A1, anti-human IgG Alexa 647
[1] = molecular target: T1, QYKGHCYK
T1 construct: LY75 8mer on the microarray
T1 peptide: QYKGHCYK
Description: (§1) The peptide microarray analysis was performed by LC Sciences, Houston Tex., in brief the method comprised the following steps: —Contiguous 8mer peptides of LY75 protein having […] spanning residues 216 to 1666 of the full length LY75 protein were synthesized and immobilized on a microarray chip. The chip comprised three panels such that the experiment was performed in triplicate. […] The binding assay was performed under the following conditions:—
(§2) The microarray comprising the contiguous peptides in triplicate was washed with 1 mL of binding buffer at 4° C. for 20 min. […] The array was again washed with 0.5 mL of washing buffer at 4° C. for 30 min then incubated with 25 ng/mL anti-human IgG Alexa 647 conjugate in binding buffer (pH 7.0) at 4° C. for 1 hr. The array was again washed with 0.5 mL of washing buffer at 4° C. for 30 min.

[2] = molecular target: T2, SCSERHFV
T2 construct: LY75 8mer on the microarray
T2 peptide: SCSERHFV
Description: as §1, §2

[3] = molecular target: T3, YSNFHPLL
T3 construct: LY75 8mer on the microarray
T3 peptide: YSNFHPLL
Description: as §1, §2

[4] = molecular target: T4, YKSDQALH
T4 construct: LY75 8mer on the microarray
T4 peptide: YKSDQALH
Description: as §1, §2

[5] = molecular target: T5, YDDREFIY
T5 construct: LY75 8mer on the microarray; aa 769-776 counted from Region 3 (aa761-780)
T5 peptide: YDDREFIY
Description: as §1, §2

[6] = molecular target: T6, YKGHCYKS
T6 construct: LY75 8mer on the microarray
T6 peptide: YKGHCYKS
Description: as §1, §2

[7] = molecular target: T7, FVSLCQKY
T7 construct: LY75 8mer on the microarray
T7 peptide: FVSLCQKY
Description: as §1, §2

[8] = molecular target: T8, KLSRLTYS
T8 construct: LY75 8mer on the microarray
T8 peptide: KLSRLTYS
Description: as §1, §2

[9] = molecular target: T9, PWHRFPVT
T9 construct: LY75 8mer on the microarray
T9 peptide: PWHRFPVT
Description: as §1, §2

[10] = molecular target: T10, SRYPWHRF
T10 construct: LY75 8mer on the microarray
T10 peptide: SRYPWHRF
Description: as §1, §2

[11] = molecular target: T11, HFTYSRYP
T11 construct: LY75 8mer on the microarray
T11 peptide: HFTYSRYP
Description: as §1, §2

[12] = molecular target: T12, EFIYLRPF
T12 construct: LY75 8mer on the microarray; aa 773-780 counted from Region 3 (aa761-780)
T12 peptide: EFIYLRPF
Description: as §1, §2

[13] = molecular target: T13, HRFPVTFG
T13 construct: LY75 8mer on the microarray
T13 peptide: HRFPVTFG
Description: as §1, §2

[14] = molecular target: T14, YSRYPWHR
T14 construct: LY75 8mer on the microarray
T14 peptide: YSRYPWHR
Description: as §1, §2

[15] = molecular target: T15, LNNLYKII
T15 construct: LY75 8mer on the microarray
T15 peptide: LNNLYKII
Description: as §1, §2

[16] = molecular target: T16, LSCYKVFH
T16 construct: LY75 8mer on the microarray
T16 peptide: LSCYKVFH
Description: as §1, §2

[17] = molecular target: T17, TSCSERHF
T17 construct: LY75 8mer on the microarray
T17 peptide: TSCSERHF
Description: as §1, §2

[18] = molecular target: T18, VYFHQHSI
T18 construct: LY75 8mer on the microarray
T18 peptide: VYFHQHSI
Description: as §1, §2

[19] = molecular target: T19, EVKDCRSF
T19 construct: LY75 8mer on the microarray
T19 peptide: EVKDCRSF
Description: as §1, §2

[20] = molecular target: T20, LSRLTYSS
T20 construct: LY75 8mer on the microarray
T20 peptide: LSRLTYSS
Description: as §1, §2

[21] = molecular target: T21, SCYKVFHA
T21 construct: LY75 8mer on the microarray
T21 peptide: SCYKVFHA
Description: as §1, §2

[22] = molecular target: T22, SLSCYKVF
T22 construct: LY75 8mer on the microarray
T22 peptide: SLSCYKVF
Description: as §1, §2

[23] = molecular target: T23, DHFTYSRY
T23 construct: LY75 8mer on the microarray
T23 peptide: DHFTYSRY
Description: as §1, §2

[24] = molecular target: T24, WHRFPVTF
T24 construct: LY75 8mer on the microarray
T24 peptide: WHRFPVTF
Description: as §1, §2

[25] = molecular target: T25, RYPWHRFP
T25 construct: LY75 8mer on the microarray
T25 peptide: RYPWHRFP
Description: as §1, §2

[26] = molecular target: T26, TYSNFHPL
T26 construct: LY75 8mer on the microarray
T26 peptide: TYSNFHPL
Description: as §1, §2

[27] = molecular target: T27, LTYSNFHP
T27 construct: LY75 8mer on the microarray
T27 peptide: LTYSNFHP
Description: as §1, §2

Measured: binding result

B1: LY75_A1 monoclonal antibody (antibody, human IgG1, kappa, V domains shown)
VH: EVQLVESGGGLVKPGGSLRLSCAASGFTYSNAWMSWVRQAPGKGLEWVGRIKSKTDGGTTDYAAPVQGRFTISRDDSKNTLYLQMNSLKTEDTAVYYCTIFGVVSFDYWGQGTLVTVSS
VL: DVQMTQSPSSLSASVGDRVTITCRASQSISDYLSWYQQRPGKAPNLLIYAASNLKTGVPSRFSGSGSGTDFTLTISTLQPEDFATYYCQQSYRSPWTFGQGTKVEIKR
notes: also called LY75A1 antibody; antibody LY75_A1
binds: [1] | [2] | [3] | [4] | [5] | [6] | [7] | [8] | [9] | [10] | [11] | [12] | [13] | [14] | [15] | [16] | [17] | [18] | [19] | [20] | [21] | [22] | [23] | [24] | [25] | [26] | [27]
